Measurements reported in the supplement of paper PMC9732359.
± gives the uncertainty stated by the source.

Test: protein stability index of a GFP-peptide fusion (yeast GPS) (PSI 1-4); higher = more stable; sorted into four equal gates, so the index is relative within each strain
Outline: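 The protein stability index combines read frequencies across sorting gates, each weighted by its gate number and then summed. To obtain those frequencies, a pooled yeast library of GFP fusions to tiled 17-residue yeast protein peptides, on a plasmid also expressing Cherry, was grown to mid-log phase in leucine-free medium. The cells were sorted into four equal gates by GFP/Cherry ratio before plasmid amplification by PCR and Illumina sequencing.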

Sequence | protein stability index (doa10∆) | protein stability index (pdr5∆) | protein stability index (san1∆) | protein stability index (ubr1∆)
PIAAPKKPRKPRQTKKA [PGD1] | 2.64 ± 0.11 | 3.18 ± 0.092 | 2.56 ± 0.082 | 3.09 ± 0.097
QHYLDTATAPRLFDKLK [QCR6] | 2.96 ± 0.055 | 3.04 ± 0.045 | 2.84 ± 0.061 | 2.76 ± 0.091
LLETKLRQQYEIELKKL [SWI1] | 3.01 ± 0.12 | 2.96 ± 0.1 | 3.17 ± 0.069 | 2.92 ± 0.11
VAEIVQNVISLGSLTVE [RPC82] | 1.97 ± 0.068 | 2.23 ± 0.098 | 1.97 ± 0.14 | 1.68 ± 0.11
PSMMAPLRDNGLLDESP [YML031W/NDC1] | – | 2.79 ± 0.29 | – | 3.35 ± 0.11
IAARRTGLLRGSQKTQD [RPL2A] | 2.83 ± 0.095 | 2.73 ± 0.064 | 2.66 ± 0.075 | 2.68 ± 0.079
KIRARSITLQGDVYDPE [SMC2] | 2.07 ± 0.065 | 2.19 ± 0.059 | 1.79 ± 0.16 | 1.86 ± 0.067
FAGVASMNVTLGVPRIK [RPO31] | 2.82 ± 0.095 | 2.78 ± 0.086 | 2.94 ± 0.079 | 2.76 ± 0.064
DRTMLAPMDFAIVVGWR [FAS1] | 2.49 ± 0.075 | 2.43 ± 0.062 | 2.68 ± 0.062 | 1.77 ± 0.041
SVMPPNEVYSAYVVNDT [DLS1] | 2.77 ± 0.087 | 2.95 ± 0.13 | 1.89 ± 0.28 | 3.04 ± 0.082
KQNSSSDINQNDDSSSM [YDL088C/ASM4] | 3.1 ± 0.17 | 2.94 ± 0.08 | 2.58 ± 0.088 | 2.69 ± 0.058
AESEAITVTAKQQPTMQ [SWI3] | 3.14 ± 0.083 | 3.22 ± 0.063 | 2.88 ± 0.071 | 3.04 ± 0.035
IVEQDKSMELFYDIRSL [YJL039C/NUP192] | 2.34 ± 0.13 | 2.93 ± 0.11 | 2.66 ± 0.086 | 3.16 ± 0.082
QTGTRRNSKLLNTKSIQ [MCD1] | 3.29 ± 0.2 | 3.19 ± 0.18 | 3.05 ± 0.085 | 3.2 ± 0.072
VDEPMTSAVELGAIEQI [YJL039C/NUP192] | 3.41 ± 0.3 | 3.66 ± 0.17 | 3 ± 0.16 | 2.87 ± 0.28
KSKSSLDGKFSLFHTAV [RPN2] | 2.86 ± 0.096 | 2.8 ± 0.072 | 2.86 ± 0.067 | 2.77 ± 0.067
DVTPADDLKQKKEELVE [RPO31] | 3.12 ± 0.16 | 3.25 ± 0.093 | 3.08 ± 0.15 | 3.24 ± 0.12
KFADGFLIHSGQPVNDF [RPS3] | 2.67 ± 0.059 | 3.07 ± 0.097 | 3.22 ± 0.074 | 3.06 ± 0.087
LESYKTQAKKLYHHTTK [SRP72] | 2.29 ± 0.068 | 2.73 ± 0.096 | 2.02 ± 0.13 | 2.66 ± 0.06
PNLNMKYRKRQLVTREA [FAS2] | 3.68 ± 0.15 | 3.13 ± 0.11 | 3 ± 0.095 | 3.05 ± 0.081
EKDASGKPSFVFGASDK [YOR098C/NUP1] | 2.63 ± 0.067 | 2.52 ± 0.065 | 2.98 ± 0.076 | 2.37 ± 0.074
IHSMNENPTPEKGNAKM [SIR3] | 2.94 ± 0.087 | 2.67 ± 0.069 | 3.03 ± 0.059 | 2.87 ± 0.048
ETRPAQVILPMSPNHGT [FAS2] | 2.43 ± 0.042 | 2.38 ± 0.04 | 2.46 ± 0.071 | 2.36 ± 0.036
GHVKPVRCVNCSKSIPK [RPS26A] | 2.8 ± 0.1 | 2.7 ± 0.11 | 2.16 ± 0.19 | 3.06 ± 0.14
KLNKKLQHLRSRCHLVT [SRP68] | 3.23 ± 0.11 | 3.34 ± 0.09 | 3.3 ± 0.039 | 3.27 ± 0.077
AGTEANAVSFDTTFSDF [SRB4] | 3.03 ± 0.042 | 3.06 ± 0.045 | 3.036 ± 0.029 | 3.02 ± 0.038
